The values that follow come from patent publication US20240000957A1 (published 2024).

One may read the Ki as the equilibrium dissociation constant of an inhibitor or competing ligand from its target. The Kd is a measure of binding affinity in units of concentration. Low readings indicate a tighter complex, high ones a looser complex.

Assay [1] concerns the target T1, Human EphA2 (Ecto), C-terminal polyHis (Human, UniProt P29317 24-537).
T1 construct: extracellular domain; R&D systems 3035-A2 or in-house
The assay is described as follows: FP competition vs Reference Compound C (Study 2).

Assay [2] concerns the target T2, Mouse EphA2 (Ecto) (Mouse, UniProt Q03145 26-538).
T2 construct: extracellular domain; Fluorescence polarisation assays; not shown: Fc fusion (R&D Systems 639-A2) or C-terminal polyHis (Sino Biological 50586-M08H)
Nature of the assay: FP competition vs Reference Compound C (Study 2).

Assay [3] deals with T3, Rat EphA2 (ligand binding), C-terminal polyHis (Rat).
T3 construct: In-house
Nature of the assay: FP competition vs Reference Compound C (Study 2).

Assay [4] concerns the target T4, Human EphA6 Fc fusion (Human, UniProt Q9UF33 23-550, limits assumed).
T4 construct: SPR; R&D Systems 5606-A6
T4 sequence (looked up): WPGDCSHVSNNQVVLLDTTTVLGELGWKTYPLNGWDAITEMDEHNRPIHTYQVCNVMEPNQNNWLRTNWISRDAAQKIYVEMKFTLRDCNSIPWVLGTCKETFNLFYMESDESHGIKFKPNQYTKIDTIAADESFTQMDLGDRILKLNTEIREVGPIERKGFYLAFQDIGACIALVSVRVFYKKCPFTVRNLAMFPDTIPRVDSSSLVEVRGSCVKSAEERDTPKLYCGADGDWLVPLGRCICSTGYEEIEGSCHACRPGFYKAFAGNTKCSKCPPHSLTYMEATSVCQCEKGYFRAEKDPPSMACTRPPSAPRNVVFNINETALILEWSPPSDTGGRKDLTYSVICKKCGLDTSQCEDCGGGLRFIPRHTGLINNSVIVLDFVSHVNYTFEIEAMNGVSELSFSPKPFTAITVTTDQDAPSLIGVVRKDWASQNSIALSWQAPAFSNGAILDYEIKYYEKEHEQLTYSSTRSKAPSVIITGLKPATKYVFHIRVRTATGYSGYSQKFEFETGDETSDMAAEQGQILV
The assay is described as follows: SPR. (In SPR one partner is held on a chip, and binding of the other changes the refractive index at the surface.)

Assay [5] deals with T5, Rat EphA3 Fc fusion (Rat, UniProt O08680 21-541).
T5 construct: SPR; Sino Biologics 80465-R02H
T5 sequence (looked up): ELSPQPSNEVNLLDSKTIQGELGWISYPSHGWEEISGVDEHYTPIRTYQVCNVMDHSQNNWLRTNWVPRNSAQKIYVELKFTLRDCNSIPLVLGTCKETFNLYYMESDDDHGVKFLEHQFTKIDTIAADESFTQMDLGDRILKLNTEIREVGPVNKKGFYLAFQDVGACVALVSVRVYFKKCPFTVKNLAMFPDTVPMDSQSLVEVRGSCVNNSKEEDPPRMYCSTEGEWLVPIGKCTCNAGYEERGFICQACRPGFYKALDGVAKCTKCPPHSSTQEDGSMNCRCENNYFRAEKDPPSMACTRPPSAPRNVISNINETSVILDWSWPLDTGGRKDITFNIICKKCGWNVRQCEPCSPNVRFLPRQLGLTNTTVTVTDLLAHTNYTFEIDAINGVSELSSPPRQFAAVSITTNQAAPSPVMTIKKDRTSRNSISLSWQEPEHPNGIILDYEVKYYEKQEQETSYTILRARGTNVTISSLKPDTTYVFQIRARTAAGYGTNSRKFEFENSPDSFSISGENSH
The assay is described as follows: SPR.

Assay [6] addresses T6, Human EphA5, biotinylated (Human, UniProt P54756 25-573, limits assumed, 3.1 mol biotin/monomer).
T6 construct: SPR; R&D Systems 3036-A5
The assay is described as follows: SPR.

In assay [7] the target is T7, Human EphA3 Fc fusion (Human, UniProt P29320 21-541, limits assumed).
T7 construct: SPR; R&D Systems 6444-A3
T7 sequence (looked up): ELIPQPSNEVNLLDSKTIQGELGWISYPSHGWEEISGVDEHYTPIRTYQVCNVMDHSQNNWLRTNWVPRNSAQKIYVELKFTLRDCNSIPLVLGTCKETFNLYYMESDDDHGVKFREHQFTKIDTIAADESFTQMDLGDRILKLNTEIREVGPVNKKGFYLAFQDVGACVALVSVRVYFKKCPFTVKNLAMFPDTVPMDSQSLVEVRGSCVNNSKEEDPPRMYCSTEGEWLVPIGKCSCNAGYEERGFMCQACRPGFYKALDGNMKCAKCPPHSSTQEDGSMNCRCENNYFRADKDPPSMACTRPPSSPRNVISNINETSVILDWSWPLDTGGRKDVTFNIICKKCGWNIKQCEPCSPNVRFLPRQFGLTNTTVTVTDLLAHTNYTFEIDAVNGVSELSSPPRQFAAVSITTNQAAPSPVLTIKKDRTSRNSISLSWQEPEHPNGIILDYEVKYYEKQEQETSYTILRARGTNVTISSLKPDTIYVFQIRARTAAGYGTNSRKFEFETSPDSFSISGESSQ
The assay is described as follows: SPR.

The target in assay [8] is T8, Human EphB4 Fc fusion (Human, UniProt P54760 16-539).
T8 construct: SPR; Sino Biologics 10235-H02H
T8 sequence (looked up): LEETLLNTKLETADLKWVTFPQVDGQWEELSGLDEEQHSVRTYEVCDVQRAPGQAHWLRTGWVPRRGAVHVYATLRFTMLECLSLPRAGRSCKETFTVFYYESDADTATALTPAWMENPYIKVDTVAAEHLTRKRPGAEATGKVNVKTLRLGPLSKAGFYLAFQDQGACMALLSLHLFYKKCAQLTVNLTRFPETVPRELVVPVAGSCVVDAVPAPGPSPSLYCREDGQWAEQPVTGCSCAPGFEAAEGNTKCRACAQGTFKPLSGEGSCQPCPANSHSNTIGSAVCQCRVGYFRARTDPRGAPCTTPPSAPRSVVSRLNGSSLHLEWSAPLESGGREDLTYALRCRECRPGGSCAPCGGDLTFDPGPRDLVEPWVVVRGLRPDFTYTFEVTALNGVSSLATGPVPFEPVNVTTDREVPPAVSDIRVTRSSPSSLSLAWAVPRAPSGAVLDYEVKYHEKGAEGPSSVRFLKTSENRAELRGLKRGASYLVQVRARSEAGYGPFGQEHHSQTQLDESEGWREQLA
The assay is described as follows: SPR.

The target of assay [9] is T9, Human EphA2 (Human, UniProt P29317 24-537, limits assumed, biotinylated, 0.95 mol biotin/monomer).
T9 construct: also called Eph receptor tyrosine kinase A2
Nature of the assay: SPR, biotinylated EphA2 on streptavidin chip.

The target in assay [10] is T10, Mouse EphA2 Fc fusion (Mouse, UniProt Q03145 26-535, limits assumed).
T10 construct: Bought Fc fusion; also called R&D Systems 639-A2; not shown: Fc of the bought fusion
Nature of the assay: SPR, Fc-tagged EphA2 captured by anti-human IgG.

T10 sequence (Q03145 26-535 limits assumed): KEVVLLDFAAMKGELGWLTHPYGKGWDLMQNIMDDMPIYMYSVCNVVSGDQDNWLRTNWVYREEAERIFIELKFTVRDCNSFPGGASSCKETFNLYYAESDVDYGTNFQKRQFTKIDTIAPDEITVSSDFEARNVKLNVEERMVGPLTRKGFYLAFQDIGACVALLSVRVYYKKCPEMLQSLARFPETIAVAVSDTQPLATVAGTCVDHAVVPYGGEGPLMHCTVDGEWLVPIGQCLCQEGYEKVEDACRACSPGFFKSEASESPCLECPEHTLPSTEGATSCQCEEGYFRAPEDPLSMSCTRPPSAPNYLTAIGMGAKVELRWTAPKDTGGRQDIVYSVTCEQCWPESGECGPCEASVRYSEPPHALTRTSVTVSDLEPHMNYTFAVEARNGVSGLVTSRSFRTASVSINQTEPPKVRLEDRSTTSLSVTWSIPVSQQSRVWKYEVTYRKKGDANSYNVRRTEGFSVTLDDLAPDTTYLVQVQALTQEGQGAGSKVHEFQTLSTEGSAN
T9 sequence (P29317 24-537 limits assumed): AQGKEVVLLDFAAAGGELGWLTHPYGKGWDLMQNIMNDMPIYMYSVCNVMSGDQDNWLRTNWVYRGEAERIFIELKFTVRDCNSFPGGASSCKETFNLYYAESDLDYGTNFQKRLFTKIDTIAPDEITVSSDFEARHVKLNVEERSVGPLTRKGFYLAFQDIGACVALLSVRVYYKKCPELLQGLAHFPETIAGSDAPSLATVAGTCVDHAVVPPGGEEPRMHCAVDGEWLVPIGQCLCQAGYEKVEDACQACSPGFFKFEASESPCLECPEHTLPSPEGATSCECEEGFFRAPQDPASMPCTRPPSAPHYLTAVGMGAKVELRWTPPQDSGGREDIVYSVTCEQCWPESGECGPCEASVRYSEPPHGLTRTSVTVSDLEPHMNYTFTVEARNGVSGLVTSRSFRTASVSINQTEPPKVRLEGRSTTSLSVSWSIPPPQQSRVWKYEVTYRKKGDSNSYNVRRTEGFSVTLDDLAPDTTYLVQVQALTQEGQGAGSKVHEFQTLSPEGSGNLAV
T1 sequence (P29317 24-537): as the sequence (P29317 24-537 limits assumed) above
T6 sequence (P54756 25-573 limits assumed): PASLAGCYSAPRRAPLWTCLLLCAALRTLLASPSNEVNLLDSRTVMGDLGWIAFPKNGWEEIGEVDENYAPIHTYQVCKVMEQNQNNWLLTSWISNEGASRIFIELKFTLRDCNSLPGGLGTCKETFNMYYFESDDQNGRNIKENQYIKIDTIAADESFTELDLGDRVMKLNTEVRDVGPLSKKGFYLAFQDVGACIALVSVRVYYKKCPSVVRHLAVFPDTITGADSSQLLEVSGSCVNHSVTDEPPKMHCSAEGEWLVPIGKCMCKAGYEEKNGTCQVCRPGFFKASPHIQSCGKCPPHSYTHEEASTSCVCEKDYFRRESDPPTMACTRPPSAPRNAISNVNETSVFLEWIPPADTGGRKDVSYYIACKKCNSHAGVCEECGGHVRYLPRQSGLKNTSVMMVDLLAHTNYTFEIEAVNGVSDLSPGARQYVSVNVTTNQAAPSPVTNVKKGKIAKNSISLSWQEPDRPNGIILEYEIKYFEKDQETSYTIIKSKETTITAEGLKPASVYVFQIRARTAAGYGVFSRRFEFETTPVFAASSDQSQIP
T2 sequence (Q03145 26-538): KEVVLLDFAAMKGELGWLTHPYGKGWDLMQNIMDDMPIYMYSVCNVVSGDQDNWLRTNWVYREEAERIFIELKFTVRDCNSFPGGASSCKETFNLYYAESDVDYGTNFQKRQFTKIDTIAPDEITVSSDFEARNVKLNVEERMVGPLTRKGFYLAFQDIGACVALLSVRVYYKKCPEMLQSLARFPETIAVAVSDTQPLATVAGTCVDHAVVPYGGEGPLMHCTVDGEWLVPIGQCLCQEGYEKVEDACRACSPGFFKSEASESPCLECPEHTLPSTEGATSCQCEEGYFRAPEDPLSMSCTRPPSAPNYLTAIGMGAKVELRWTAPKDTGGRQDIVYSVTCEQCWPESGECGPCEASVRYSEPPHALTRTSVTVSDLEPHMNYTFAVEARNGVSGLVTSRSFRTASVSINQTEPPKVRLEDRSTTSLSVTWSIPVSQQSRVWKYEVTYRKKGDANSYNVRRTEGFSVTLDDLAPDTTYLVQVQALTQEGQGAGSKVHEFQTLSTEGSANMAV

B1: BCY6033 (peptide)
peptide: AXDCPLVNPLCLHPGWTC
modifications: not fully specified; as BCY6014 (N-terminal (β-Ala)-Sar10; HArg; TATA scaffold on the 3 Cys) + ValCit-MMAE
notes: Bicycle drug conjugate (BDC)
Turning to B1, the inhibitory constant (Ki) amounted to 9.9 nM in [1], 34.2 nM in [2] and 13.4 nM in assay [3]. In addition, the binding result in assay [4], in assay [5], in assay [6], in assay [7] and in assay [8] was “no binding” in each case.

B2: BCY6033 (peptide)
peptide: AXDCPLVNPLCLHPGWTC
modifications: not fully specified; N-terminal (β-Ala)-Sar10 spacer precedes SEQ ID NO: 11; HArg (homoarginine) at residue 2 of SEQ ID NO: 11; three Cys cyclised on the TATA scaffold; ValCit-MMAE (MMAE-PABC-Cit-Val-glutarate) on the N-terminal amine
As to B2, in assay [9], binding was put at a Kd of 3.41 nM and the t1/2 worked out at 3.5 min. In assay [10], this molecule showed a Kd of 21.8 nM and a t1/2 of 1.8 min.

B3: BCY6082 (peptide)
peptide: AXDCPLVNPLCLHPGWTC
modifications: not fully specified; N-terminal (β-Ala)-Sar10 spacer precedes SEQ ID NO: 11; HArg (homoarginine) at residue 2 of SEQ ID NO: 11; three Cys cyclised on the TATA scaffold; DM1-SS(SO3H)- (DM1-SO3H-SPDB) on the N-terminal amine
On to B3, for which, in assay [9], the Kd came to 2.42 nM and the t1/2 came to 4.8 min. In assay [10], this molecule displayed a Kd of 18.3 nM and a t1/2 of 1.9 min.

B4: BCY6082 (peptide)
peptide: AXDCPLVNPLCLHPGWTC
modifications: not fully specified; as BCY6014 (N-terminal (β-Ala)-Sar10; HArg; TATA scaffold on the 3 Cys) + DM1-SS(SO3H)-
notes: Bicycle drug conjugate (BDC)
For the molecule B4, the Ki in [1] was 10.5 nM; in assay [2], 34.1 nM; in assay [3], 13.9 nM. Also, the binding result in assay [4], in [5], in assay [6], in assay [7] and in assay [8] was “no binding” throughout.
